We go through four molecules from patent publication US20240392004A1 (IMMUNOWAKE, published 2024).

Changes are numbered by the printed parent chain. Names may count otherwise. A value given as a limit tells only on which side of the number the result lay.

Assay [1] deals with T1, IFN-γ receptor (IFNGR1 and IFNGR2) (UniProt P15260 18-489; P38484 22-337, limits assumed).
T1 sequence (looked up) 1: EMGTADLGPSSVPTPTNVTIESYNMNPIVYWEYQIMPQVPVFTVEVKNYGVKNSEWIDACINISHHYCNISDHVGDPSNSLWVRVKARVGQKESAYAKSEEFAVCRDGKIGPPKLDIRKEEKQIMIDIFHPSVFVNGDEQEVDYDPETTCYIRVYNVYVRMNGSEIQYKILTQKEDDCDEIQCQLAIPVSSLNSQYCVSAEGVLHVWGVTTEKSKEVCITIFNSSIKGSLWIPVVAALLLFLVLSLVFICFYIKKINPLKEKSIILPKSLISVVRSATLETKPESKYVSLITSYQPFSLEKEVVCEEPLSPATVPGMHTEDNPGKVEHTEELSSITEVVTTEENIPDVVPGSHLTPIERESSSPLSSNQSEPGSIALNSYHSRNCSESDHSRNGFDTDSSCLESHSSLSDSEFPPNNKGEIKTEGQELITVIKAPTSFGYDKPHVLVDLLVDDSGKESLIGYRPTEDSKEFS
T1 sequence (looked up) 2: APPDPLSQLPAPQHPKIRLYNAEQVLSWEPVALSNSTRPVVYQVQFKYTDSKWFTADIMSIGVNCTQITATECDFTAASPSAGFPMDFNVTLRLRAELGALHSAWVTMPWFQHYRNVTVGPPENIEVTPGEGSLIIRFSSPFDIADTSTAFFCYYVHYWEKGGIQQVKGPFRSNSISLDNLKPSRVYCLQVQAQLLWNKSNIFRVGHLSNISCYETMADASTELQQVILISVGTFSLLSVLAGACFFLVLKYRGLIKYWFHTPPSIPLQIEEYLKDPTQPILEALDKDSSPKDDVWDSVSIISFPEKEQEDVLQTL
Description: cell-based or functional assay.

The target in assay [2] is T2, human PD-1 on cells (HEK-PD-1 reporter cells; activated PBMC) (human, UniProt Q15116 25-288). Description: cell-based or functional assay.
T2 sequence (Q15116 25-288): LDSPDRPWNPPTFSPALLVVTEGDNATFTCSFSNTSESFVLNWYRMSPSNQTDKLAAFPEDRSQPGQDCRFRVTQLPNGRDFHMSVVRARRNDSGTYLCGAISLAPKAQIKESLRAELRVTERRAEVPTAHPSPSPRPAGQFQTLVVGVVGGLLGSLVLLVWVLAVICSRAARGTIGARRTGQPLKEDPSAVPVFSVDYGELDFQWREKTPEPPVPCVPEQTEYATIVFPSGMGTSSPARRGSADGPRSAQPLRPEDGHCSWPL
In assay [3] the target is human IL-12 receptor complex (IL-12Rβ1 and IL-12Rβ2) (human, UniProt P42701 24-662; Q99665 24-862). Description: cell-based or functional assay.
Sequence of human IL-12 receptor complex (IL-12Rβ1 and IL-12Rβ2) (Q99665 24-862, chain 2 of 2, other chains not shown): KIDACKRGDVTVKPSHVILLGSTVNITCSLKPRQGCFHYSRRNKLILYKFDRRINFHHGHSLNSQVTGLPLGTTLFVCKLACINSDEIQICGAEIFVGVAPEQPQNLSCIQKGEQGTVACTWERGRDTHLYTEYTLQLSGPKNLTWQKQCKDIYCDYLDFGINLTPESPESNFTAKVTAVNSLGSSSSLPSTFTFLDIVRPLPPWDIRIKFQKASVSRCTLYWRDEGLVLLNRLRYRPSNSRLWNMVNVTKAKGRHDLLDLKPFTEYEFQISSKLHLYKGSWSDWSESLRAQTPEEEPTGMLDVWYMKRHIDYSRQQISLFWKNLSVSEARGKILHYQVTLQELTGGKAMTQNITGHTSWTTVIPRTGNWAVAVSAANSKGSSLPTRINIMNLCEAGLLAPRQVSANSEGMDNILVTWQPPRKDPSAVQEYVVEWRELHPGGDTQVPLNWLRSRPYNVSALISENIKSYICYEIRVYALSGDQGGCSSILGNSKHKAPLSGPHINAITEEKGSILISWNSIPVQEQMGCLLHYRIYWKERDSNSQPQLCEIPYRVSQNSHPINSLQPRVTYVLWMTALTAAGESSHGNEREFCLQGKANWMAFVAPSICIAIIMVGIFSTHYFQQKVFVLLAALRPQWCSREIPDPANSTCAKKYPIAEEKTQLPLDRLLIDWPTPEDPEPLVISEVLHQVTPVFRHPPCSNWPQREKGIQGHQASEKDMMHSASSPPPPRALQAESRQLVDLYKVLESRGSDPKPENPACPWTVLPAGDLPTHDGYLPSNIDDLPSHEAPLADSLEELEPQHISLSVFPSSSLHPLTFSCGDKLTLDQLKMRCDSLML
Assay [4] deals with T3, mouse PD-1 (mouse, UniProt Q02242 25-167, limits assumed).
T3 construct: also called mPD-1
T3 sequence (looked up): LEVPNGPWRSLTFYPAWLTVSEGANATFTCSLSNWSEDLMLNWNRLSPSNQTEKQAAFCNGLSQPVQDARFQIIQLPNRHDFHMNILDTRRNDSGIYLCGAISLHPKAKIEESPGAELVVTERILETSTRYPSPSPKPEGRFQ
The assay can be described thus: PD-L1-Fc format, calibrated on PD-L1(wt)-Fc, method not stated.

The target of assay [5] is T4, human PD-1 (human, UniProt Q15116 25-167, limits assumed).
T4 construct: also called hPD-1
T4 sequence (Q15116 25-167 limits assumed): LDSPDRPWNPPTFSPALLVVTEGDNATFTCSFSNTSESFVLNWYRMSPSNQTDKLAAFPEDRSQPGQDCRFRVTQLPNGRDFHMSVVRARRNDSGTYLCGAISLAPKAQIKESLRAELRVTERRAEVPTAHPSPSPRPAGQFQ
The assay is described as above.

In assay [6] the target is T5, human IL-2 receptor (IL-2Rα, IL-2Rβ, IL-2Rγ) (human, UniProt P01589 22-272; P14784 27-551; P31785 23-369).
T5 sequence (looked up) 1: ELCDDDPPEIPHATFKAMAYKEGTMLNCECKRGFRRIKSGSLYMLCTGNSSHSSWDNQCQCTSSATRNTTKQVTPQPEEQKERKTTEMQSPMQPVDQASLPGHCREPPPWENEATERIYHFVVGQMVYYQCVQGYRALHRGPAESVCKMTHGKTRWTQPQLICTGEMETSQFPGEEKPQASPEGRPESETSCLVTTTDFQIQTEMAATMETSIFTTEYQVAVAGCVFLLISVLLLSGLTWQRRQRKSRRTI
T5 sequence (looked up) 2: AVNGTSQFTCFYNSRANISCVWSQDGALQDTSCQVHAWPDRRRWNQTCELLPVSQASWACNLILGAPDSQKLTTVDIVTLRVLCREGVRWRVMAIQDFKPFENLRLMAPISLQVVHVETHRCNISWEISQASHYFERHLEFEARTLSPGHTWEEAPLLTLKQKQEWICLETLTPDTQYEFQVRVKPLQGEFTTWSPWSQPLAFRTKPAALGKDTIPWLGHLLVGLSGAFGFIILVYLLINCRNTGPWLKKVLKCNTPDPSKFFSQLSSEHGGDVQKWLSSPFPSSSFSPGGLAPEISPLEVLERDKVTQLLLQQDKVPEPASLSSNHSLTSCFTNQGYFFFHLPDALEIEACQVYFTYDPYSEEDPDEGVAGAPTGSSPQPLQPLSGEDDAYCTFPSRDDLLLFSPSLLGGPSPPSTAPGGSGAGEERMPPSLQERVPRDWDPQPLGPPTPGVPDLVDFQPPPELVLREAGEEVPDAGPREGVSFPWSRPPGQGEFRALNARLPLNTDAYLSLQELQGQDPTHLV
T5 sequence (looked up) 3: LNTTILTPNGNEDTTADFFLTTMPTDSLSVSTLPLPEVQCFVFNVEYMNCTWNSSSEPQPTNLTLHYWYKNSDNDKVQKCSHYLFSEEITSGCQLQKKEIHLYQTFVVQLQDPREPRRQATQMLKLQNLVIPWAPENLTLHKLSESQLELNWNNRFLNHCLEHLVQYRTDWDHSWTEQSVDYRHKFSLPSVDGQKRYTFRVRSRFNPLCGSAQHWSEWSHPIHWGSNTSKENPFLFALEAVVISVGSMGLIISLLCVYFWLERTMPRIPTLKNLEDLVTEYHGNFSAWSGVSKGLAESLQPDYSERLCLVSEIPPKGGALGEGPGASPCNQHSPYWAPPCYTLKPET
Description: cell-based or functional assay.

Assay [7] addresses T2, human PD-1 on cells (HEK-PD-1 reporter …). The assay can be described thus: cell-based or functional assay. The source holds these as a separate data set.

B1: IL-12(E59A/F60A)/IFN-γ(A23V/A23V)/PD-L1(mut2)-Fc (Fc fusion)
chain 1: FTVTVPKDLYVVEYGSNMTIECKFPVEKQLDLAALQVYWMMEDKNIIQFVHGEEDLKVQHSSYRQRARLLKDQLSLGNAALQITDVKLQDAGVYTCLIAYKGADYKRITVKVNAPYNKINQRILVVDPVTSEHELTCQAEGYPKAEVIWTSSDHQVLSGKTTTTNSKREEKLFNVTSTLRINTTTNEIFYCTFRRLDPEENHTAELVIPELPLAHPPNERGGGGSGGGIWELKKDVYVVELDWYPDAPGEMVVLTCDTPEEDGITWTLDQSSEVLGSGKTLTIQVKAAGDAGQYTCHKGGEVLSHSLLLLHKKEDGIWSTDILKDQKEPKNKTFLRCEAKNYSGRFTCWWLTTISTDLTFSVKSSRGSSDPQGVTCGAATLSAERVRGDNKEYEYSVECQEDSACPAAEESLPIEVMVDAVHKLKYENYTSSFFIRDIIKPDPPKNLQLKPLKNSRQVEVSWEYPDTWSTPHSYFSLTFCVQVQGKSKREKKDRVFTDKTSATVICRKNASISVRAQDRYYSSSWSEWASVPCSGGGGSGGGSGGGGSRNLPVATPDPGMFPCLHHSQNLLRAVSNMLQKARQTLEFYPCTSEEIDHEDITKDKTSTVEACLPLELTKNESCLNSRETSFITNGSCLASRKTSFMMALCLSSIYEDLKMYQVEFKTMNAKLLMDPKRQIFLDQNMLAVIDELMQALNFNSETVPQKSSLEEPDFYKTKIKLCILLHAFRIRAVTIDRVMSYLNASGGGGSGGGDKTHTCPPCPAPEDEGGPSVFLFPPKPKDTLMISRTPEVTCVVVDVSHEDPEVKFNWYVDGVEVHNAKTKPREEQYNSTYRVVSVLTVLHQDWLNGKEYKCKVSNKALPAPIEKTISKAKGQPREPQVYVYPPSREEMTKNQVSLTCLVKGFYPSDIAVEWESNGQPENNYKTTPPVLDEDGSFALVSKLTVDKSRWQQGNVFSCSVMHEALHNHYTQKSLSLSPGK
chain 2: FTVTVPKDLYVVEYGSNMTIECKFPVEKQLDLAALQVYWMMEDKNIIQFVHGEEDLKVQHSSYRQRARLLKDQLSLGNAALQITDVKLQDAGVYTCLIAYKGADYKRITVKVNAPYNKINQRILVVDPVTSEHELTCQAEGYPKAEVIWTSSDHQVLSGKTTTTNSKREEKLFNVTSTLRINTTTNEIFYCTFRRLDPEENHTAELVIPELPLAHPPNERGGGSGQDPYVKEAENLKKYFNAGHSDVVDNGTLFLGILKNWKEESDRKIMQSQIVSFYFKLFKNFKDDQSIQKSVETIKEDMNVKFFNSNKKKRDDFEKLTNYSVTDLNVQRKAIHELIQVMAELSPAAKTGKRKRSQMLFRGGGGSGGGGSGGGGSGGGGSQDPYVKEAENLKKYFNAGHSDVVDNGTLFLGILKNWKEESDRKIMQSQIVSFYFKLFKNFKDDQSIQKSVETIKEDMNVKFFNSNKKKRDDFEKLTNYSVTDLNVQRKAIHELIQVMAELSPAAKTGKRKRSQMLFRGGGGGSGGGDKTHTCPPCPAPEKKGGPSVFLFPPKPKDTLMISRTPEVTCVVVDVSHEDPEVKFNWYVDGVEVHNAKTKPREEQYNSTYRVVSVLTVLHQDWLNGKEYKCKVSNKALPAPIEKTISKAKGQPREPQVYVLPPSREEMTKNQVSLLCLVKGFYPSDIAVEWESNGQPENRYMTWPPVLDSDGSFFLYSKLTVDKSRWQQGNVFSCSVMHEALHNHYTQKSLSLSPGK
On to B1, for which, in assay [1], the “IFN-γ signal transduction, HEK-IFN-γ” value is less than 0.1%. For the same molecule, in assay [2], the “IFN-γ signal transduction, HEK-IFN-γ-PD-1” value came out at 39% and the “IL-12 signal transduction, HEK-IL-12-PD-1” value came to 32%. Besides, the “IL-12 signal transduction, HEK-IL-12” value in assay [3] is less than 0.2%.

B2: IL-12(E59A/F60A)/IFN-γ(A23V/A23V)/PD-L1(mut7)-Fc (Fc fusion)
chain 1: B1 chain 1 with K101G
chain 2: B1 chain 2 with K101G
For the molecule B2, in assay [1], the “IFN-γ signal transduction, HEK-IFN-γ” value is less than 0.1%. In addition, in assay [2], the “IFN-γ signal transduction, HEK-IFN-γ-PD-1” value came out at 45% and the “IL-12 signal transduction, HEK-IL-12-PD-1” value turned out to be 43%. In assay [3], the “IL-12 signal transduction, HEK-IL-12” value was less than 0.2%.

B3: PD-L1(mut2)-Fc, I54Q/E58M/R113T/M115L/S117A/G119K (Fc fusion)
chain 1: FTVTVPKDLYVVEYGSNMTIECKFPVEKQLDLAALQVYWMMEDKNIIQFVHGEEDLKVQHSSYRQRARLLKDQLSLGNAALQITDVKLQDAGVYTCLIAYKGADYKRITVKVNAPYNKINQRILVVDPVTSEHELTCQAEGYPKAEVIWTSSDHQVLSGKTTTTNSKREEKLFNVTSTLRINTTTNEIFYCTFRRLDPEENHTAELVIPELPLAHPPNERGGGGSGGGDKTHTCPPCPAPEDEGGPSVFLFPPKPKDTLMISRTPEVTCVVVDVSHEDPEVKFNWYVDGVEVHNAKTKPREEQYNSTYRVVSVLTVLHQDWLNGKEYKCKVSNKALPAPIEKTISKAKGQPREPQVYVYPPSREEMTKNQVSLTCLVKGFYPSDIAVEWESNGQPENNYKTTPPVLDEDGSFALVSKLTVDKSRWQQGNVFSCSVMHEALHNHYTQKSLSLSPGK
chain 2: B3 chain 1 with D242K, E243K, Y359L, T374L, N398R, K400M, T402W, E408S, A413F, V415Y
As a reminder, the Kd is the free concentration of one partner at which half of the binding sites on the other are occupied at equilibrium, for simple one-to-one binding. Low readings indicate higher affinity, high ones lower affinity. B3: the dissociation constant (Kd) amounted to 120 nM in assay [4] and 150 nM in assay [5]. Moreover, the “IL-2 signal transduction, HEK-IL-2” value in assay [6] was less than 0.1%. Moreover, the “IL-2 signal transduction, HEK-IL-2-PD-1” value in assay [7] was less than 0.1%.

B4: IFN-γ(A23V/A23V)/PD-L1(mut2)-Fc (Fc fusion)
chain 1: B3 chain 1
chain 2: B1 chain 2
Turning to B4, in assay [1], the “IFN-γ signal transduction, HEK-IFN-γ” value was less than 0.1%. Moreover, in assay [2], the “IFN-γ signal transduction, HEK-IFN-γ-PD-1” value was determined as 44% and the “IL-12 signal transduction, HEK-IL-12-PD-1” value is less than 0.2%. Moreover, the “IL-12 signal transduction, HEK-IL-12” value in assay [3] is less than 0.2%.
